Results on one substance are retold here after patent US20170190781A1.

The experiment addresses death receptor 3 (DR3) on human PBMCs / T cells (human) (UniProt Q93038). The experiment can be described thus: cell-based or functional assay.

death receptor 3 (DR3) on human PBMCs / T cells (human), sequence (Q93038 25-417 limits assumed): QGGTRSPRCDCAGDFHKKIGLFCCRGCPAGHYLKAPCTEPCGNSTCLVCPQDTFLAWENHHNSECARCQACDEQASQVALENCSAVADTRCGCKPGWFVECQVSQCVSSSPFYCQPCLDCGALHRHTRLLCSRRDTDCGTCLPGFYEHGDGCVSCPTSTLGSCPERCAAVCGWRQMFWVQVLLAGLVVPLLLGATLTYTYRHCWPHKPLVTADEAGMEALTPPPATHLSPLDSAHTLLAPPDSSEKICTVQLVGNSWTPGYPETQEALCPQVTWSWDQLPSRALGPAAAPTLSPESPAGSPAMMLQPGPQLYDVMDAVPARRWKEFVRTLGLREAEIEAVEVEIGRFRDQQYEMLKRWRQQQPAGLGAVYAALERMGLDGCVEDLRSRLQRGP

In turn, “recombinant soluble human Flag-TL1A(EC) (ligand)” gave an IL-13 production by T cells with anti-CD3/anti-CD28, 1 ug/mL TL1A-flag (FIG. 4) of 1300 pg/mL; an IL-13 production by T cells with anti-CD3/anti-CD28, 1 ug/mL TL1A-flag (FIG. 8) of 1850 pg/mL; a p65 phosphorylation-positive cells (%) in PBMCs, 40 nM TL1A-flag (FIG. 2B) of 55%; a p65 phosphorylation-positive cells (%) in PBMCs, 40 nM TL1A-flag alone (FIG. 2A) of 45%. This substance also gave a p65 phosphorylation-positive cells (%) in PBMCs, TL1A alone (FIG. 3) of 55%; a p65 phosphorylation-positive cells (%) in PBMCs, TL1A alone (FIG. 5) of 69.5%; a p65 phosphorylation-positive cells (%) in PBMCs, TL1A alone (FIG. 6) of 45%; a p65 phosphorylation-positive cells (%) in PBMCs, TL1A alone (FIG. 7) of 55%.
